According to PMC11535040, “Requirement of Nek2a and cyclin A2 for Wapl-dependent removal of cohesin from prophase chromatin” (The EMBO Journal, 2024):

Target: T1, Flag-tagged Pds5a (human, UniProt Q29RF7 1-1337)
T1 construct: Pds5a, human; insert by PCR on human cDNA; also called Flag-Pds5; source: Hek293T, transfected (alone or with eGFP-Nek2aΔMR and eGFP-Δ86-cyclin A2), taxol-arrested
T1 sequence (looked up): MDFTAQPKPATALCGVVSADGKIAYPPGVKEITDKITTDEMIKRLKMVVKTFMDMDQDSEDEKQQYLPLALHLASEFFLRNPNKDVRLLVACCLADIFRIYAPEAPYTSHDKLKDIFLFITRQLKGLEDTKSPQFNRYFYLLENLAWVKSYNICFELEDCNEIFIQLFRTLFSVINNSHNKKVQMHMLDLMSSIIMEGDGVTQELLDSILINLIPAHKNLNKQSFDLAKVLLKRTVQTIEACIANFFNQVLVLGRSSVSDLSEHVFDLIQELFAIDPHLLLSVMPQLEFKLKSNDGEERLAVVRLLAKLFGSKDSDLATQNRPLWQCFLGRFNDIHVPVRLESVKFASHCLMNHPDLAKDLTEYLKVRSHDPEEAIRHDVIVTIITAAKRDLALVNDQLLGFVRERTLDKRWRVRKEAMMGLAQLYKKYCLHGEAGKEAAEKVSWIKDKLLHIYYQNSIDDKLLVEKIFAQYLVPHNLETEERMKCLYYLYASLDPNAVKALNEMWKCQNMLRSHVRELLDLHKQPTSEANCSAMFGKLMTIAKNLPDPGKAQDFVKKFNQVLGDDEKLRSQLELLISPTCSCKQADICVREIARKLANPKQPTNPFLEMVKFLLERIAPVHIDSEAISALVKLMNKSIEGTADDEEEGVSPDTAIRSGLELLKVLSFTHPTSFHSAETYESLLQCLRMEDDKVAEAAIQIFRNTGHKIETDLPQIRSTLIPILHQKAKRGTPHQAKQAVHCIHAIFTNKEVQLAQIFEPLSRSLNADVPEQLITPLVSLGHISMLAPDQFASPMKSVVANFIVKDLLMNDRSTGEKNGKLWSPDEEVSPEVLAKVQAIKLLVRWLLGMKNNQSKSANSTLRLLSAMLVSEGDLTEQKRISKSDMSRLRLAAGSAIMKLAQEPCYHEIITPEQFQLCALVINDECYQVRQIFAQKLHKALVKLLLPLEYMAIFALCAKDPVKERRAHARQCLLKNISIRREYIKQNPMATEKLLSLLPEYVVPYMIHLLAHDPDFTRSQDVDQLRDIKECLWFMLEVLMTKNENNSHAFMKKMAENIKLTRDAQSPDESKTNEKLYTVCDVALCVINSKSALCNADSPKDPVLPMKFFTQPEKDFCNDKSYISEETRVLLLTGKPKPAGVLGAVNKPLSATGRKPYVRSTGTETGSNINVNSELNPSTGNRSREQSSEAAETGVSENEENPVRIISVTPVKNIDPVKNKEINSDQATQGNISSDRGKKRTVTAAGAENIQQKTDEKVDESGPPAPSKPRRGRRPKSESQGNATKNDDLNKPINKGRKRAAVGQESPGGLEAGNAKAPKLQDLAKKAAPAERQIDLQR
Test: pull-down; Flag-Pds5a or -b affinity-purified on anti-Flag beads from chromatin-free lysates of taxol-arrested Hek293T cells (expressed alone or with Nek2aΔMR and/or Δ86-cyclin A2); beads incubated with a mixture of recombinant Wapl (2 µl) and sororin (0.3 µg) in 15 µl cleavage buffer with kinase inhibitors, 20 min at 37 °C; bound and unbound fractions by immunoblotting
Conditions: both partners purified

binding result: binds
B1: recombinant human Wapl (natural protein, UniProt Q7Z5K2 1-1190, looked up)
chain: MTSRFGKTYSRKGGNGSSKFDEVFSNKRTTLSTKWGETTFMAKLGQKRPNFKPDIQEIPKKPKVEEESTGDPFGFDSDDESLPVSSKNLAQVKCSSYSESSEAAQLEEVTSVLEANSKISHVVVEDTVVSDKCFPLEDTLLGKEKSTNRIVEDDASISSCNKLITSDKVENFHEEHEKNSHHIHKNADDSTKKPNAETTVASEIKETNDTWNSQFGKRPESPSEISPIKGSVRTGLFEWDNDFEDIRSEDCILSLDSDPLLEMKDDDFKNRLENLNEAIEEDIVQSVLRPTNCRTYCRANKTKSSQGASNFDKLMDGTSQALAKANSESSKDGLNQAKKGGVSCGTSFRGTVGRTRDYTVLHPSCLSVCNVTIQDTMERSMDEFTASTPADLGEAGRLRKKADIATSKTTTRFRPSNTKSKKDVKLEFFGFEDHETGGDEGGSGSSNYKIKYFGFDDLSESEDDEDDDCQVERKTSKKRTKTAPSPSLQPPPESNDNSQDSQSGTNNAENLDFTEDLPGVPESVKKPINKQGDKSKENTRKIFSGPKRSPTKAVYNARHWNHPDSEELPGPPVVKPQSVTVRLSSKEPNQKDDGVFKAPAPPSKVIKTVTIPTQPYQDIVTALKCRREDKELYTVVQHVKHFNDVVEFGENQEFTDDIEYLLSGLKSTQPLNTRCLSVISLATKCAMPSFRMHLRAHGMVAMVFKTLDDSQHHQNLSLCTAALMYILSRDRLNMDLDRASLDLMIRLLELEQDASSAKLLNEKDMNKIKEKIRRLCETVHNKHLDLENITTGHLAMETLLSLTSKRAGDWFKEELRLLGGLDHIVDKVKECVDHLSRDEDEEKLVASLWGAERCLRVLESVTVHNPENQSYLIAYKDSQLIVSSAKALQHCEELIQQYNRAEDSICLADSKPLPHQNVTNHVGKAVEDCMRAIIGVLLNLTNDNEWGSTKTGEQDGLIGTALNCVLQVPKYLPQEQRFDIRVLGLGLLINLVEYSARNRHCLVNMETSCSFDSSICSGEGDDSLRIGGQVHAVQALVQLFLERERAAQLAESKTDELIKDAPTTQHDKSGEWQETSGEIQWVSTEKTDGTEEKHKKEEEDEELDLNKALQHAGKHMEDCIVASYTALLLGCLCQESPINVTTVREYLPEGDFSIMTEMLKKFLSFMNLTCAVGTTGQKSISRVIEYLEHC
notes: Wapl, human; insert by PCR on human cDNA; Isolated from mitotically arrested cells; also called GFP-SUMOstar-Wapl; source: Hek293T, transiently transfected, taxol-arrested; not shown: GFP, N-terminal, cleaved; SUMOstar, N-terminal, cleaved
